This note sets out measurements from patent US20250136688A1 (Janssen / Centocor, published 2025).

This experiment concerns the target T1, ectonucleotide pyrophosphatase/phosphodiesterase family member 1 (ENPP1) (human, UniProt P22413 1-925).
T1 construct: whole, on cells
T1 sequence (looked up): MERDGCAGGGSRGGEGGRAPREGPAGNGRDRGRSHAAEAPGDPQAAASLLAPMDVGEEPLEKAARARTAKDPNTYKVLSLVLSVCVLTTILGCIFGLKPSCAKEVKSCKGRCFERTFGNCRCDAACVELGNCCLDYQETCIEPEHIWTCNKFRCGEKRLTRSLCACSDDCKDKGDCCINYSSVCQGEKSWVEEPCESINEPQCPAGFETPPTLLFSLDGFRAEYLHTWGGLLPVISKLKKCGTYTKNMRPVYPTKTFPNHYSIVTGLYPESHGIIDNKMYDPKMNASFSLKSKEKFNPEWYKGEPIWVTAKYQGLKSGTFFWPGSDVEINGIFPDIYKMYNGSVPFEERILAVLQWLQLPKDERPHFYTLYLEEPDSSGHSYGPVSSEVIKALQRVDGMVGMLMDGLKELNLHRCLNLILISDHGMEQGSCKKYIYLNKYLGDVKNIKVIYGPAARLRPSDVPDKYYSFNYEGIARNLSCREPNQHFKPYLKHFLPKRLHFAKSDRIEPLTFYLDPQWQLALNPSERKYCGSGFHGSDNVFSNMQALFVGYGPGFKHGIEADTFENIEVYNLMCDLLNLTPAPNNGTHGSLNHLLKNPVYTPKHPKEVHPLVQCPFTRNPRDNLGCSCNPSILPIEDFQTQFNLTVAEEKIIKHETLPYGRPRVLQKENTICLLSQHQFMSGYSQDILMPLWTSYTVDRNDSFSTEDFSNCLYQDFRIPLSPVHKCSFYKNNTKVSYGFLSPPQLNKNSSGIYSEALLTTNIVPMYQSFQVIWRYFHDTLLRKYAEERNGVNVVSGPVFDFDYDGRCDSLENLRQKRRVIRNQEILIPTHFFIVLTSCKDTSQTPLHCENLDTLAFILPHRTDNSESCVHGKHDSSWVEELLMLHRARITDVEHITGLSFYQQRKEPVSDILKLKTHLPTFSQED
Briefly: flow cytometry on CHOK1 cells overexpressing ENPP1. (In flow cytometry, cells or beads pass a laser one at a time.)

B1: NPP3B815 (NPP3B56×CD3B2030-N106A-spFv) (bispecific antibody, human IgG1, kappa, L234A L235A)
chain: EIVLTQSPATLSASPGERVTLSCSASSSVSYMNWYQQKPGCAPRRWIYDSSKLASGVPARFSGSGSGRDYTLTISSLEPEDFAVYYCQQWSRNPPTFGGGTKVEIKGGGSGGSGGCPPCGGSGGQVQLVQSGAEVKKPGSSVKVSCKASGYTFTRSTMHWVKQAPGQGLEWIGYINPSSAYTNYNQKFQGRVTLTADKSTSTAYMELSSLRSEDTAVYYCASPQVHYDYAGFPYWGCGTLVTVSSEPKSSDKTHTCPPCPAPEAAGGPSVFLFPPKPKDTLMISRTPEVTCVVVSVSHEDPEVKFNWYVDGVEVHNAKTKPREEQYNSTYRVVSVLTVLHQDWLNGKEYKCKVSNKALPAPIEKTISKAKGQPREPQVYTLPPSREEMTKNQVSLWCLVKGFYPSDIAVEWESNGQPENNYKTTPPVLDSDGSFFLYSKLTVDKSRWQQGNVFSCSVMHEALHNHYTQKSLSLSPGK
heavy: EVQLVESGGGRVKPGGSLRLSCAASGFTFSDYSMNWVRQAPGKGLEWVSSISSISSYVKYADSVKGRFTMSRDNAKNSLFLQMNSLRDEDMAVYYCARGHYFDYWGQGTLVTVSSASTKGPSVFPLAPSSKSTSGGTAALGCLVKDYFPEPVTVSWNSGALTSGVHTFPAVLQSSGLYSLSSVVTVPSSSLGTQTYICNVNHKPSNTKVDKKVEPKSCDKTHTCPPCPAPEAAGGPSVFLFPPKPKDTLMISRTPEVTCVVVSVSHEDPEVKFNWYVDGVEVHNAKTKPREEQYNSTYRVVSVLTVLHQDWLNGKEYKCKVSNKALPAPIEKTISKAKGQPREPQVYTLPPSREEMTKNQVSLSCAVKGFYPSDIAVEWESNGQPENNYKTTPPVLDSDGSFFLVSKLTVDKSRWQQGNVFSCSVMHEALHNRFTQKSLSLSPGK
light: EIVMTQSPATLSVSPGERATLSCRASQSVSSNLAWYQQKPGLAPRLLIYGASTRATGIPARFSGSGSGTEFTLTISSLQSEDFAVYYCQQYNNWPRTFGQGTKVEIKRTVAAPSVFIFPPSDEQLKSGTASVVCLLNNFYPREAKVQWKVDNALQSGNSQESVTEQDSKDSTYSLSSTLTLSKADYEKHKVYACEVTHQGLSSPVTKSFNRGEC
notes: Heavy Chain 1 = anti-CD3 spFv-Fc (knob); Heavy Chain 2 and Light Chain = anti-ENPP3 Fab arm NPP3B56 (hole); IgG1 with L234A, L235A, D265S; also called ENPP3×CD3
For B1, the binding result is given as “no binding”.
